Source: PMC4207802

How the values were obtained:
[1] = molecular target: T4 – TSHR-LRR10/FSHR (human) (UniProt P16473)
[2] = molecular target: T1 – FSHR-HinR/TSHR (human) (UniProt P16473)
[3] = molecular target: T3 – TSHR-LRR11/FSHR (human) (UniProt P16473)

EC50 of intracellular cAMP accumulation in transfected COS-7 cells, rhTSH dose-response [1]: 11.6 mU/ml
intracellular cAMP accumulation in transfected COS-7 cells, rhTSH 0–100 mU/ml; value at 100 mU/ml [1]: 36.6 nM
EC50 of intracellular cAMP accumulation in transfected COS-7 cells, rhTSH dose-response [2]: 0.4 mU/ml
intracellular cAMP accumulation in transfected COS-7 cells, rhTSH 0–100 mU/ml; value at 100 mU/ml [2]: 57.2 nM
EC50 of intracellular cAMP accumulation in transfected COS-7 cells, rhTSH dose-response [3]: 3.8 mU/ml
intracellular cAMP accumulation in transfected COS-7 cells, rhTSH 0–100 mU/ml; value at 100 mU/ml [3]: 32.9 nM
Substance: recombinant human thyrotropin (rhTSH) (from UniProt P01215 25-116; P01222 21-132) (ligand)
